# Test results: IntAct's records for PubMed 22990235
# B1: Mitochondrial intermembrane space import and assembly protein 40 (Saccharomyces cerevisiae), P36046 (parent)
# chain: MLRNLVVRNACRNRPSIQVARGLCRHQTRRLMASSPQFGRNSNQEKTAGFIMGILSMAGALYFIAPNRKPLFASRKVESDKTAEEELSSGGEQSPENEDDNNSKSDENGDDNDSKNDETEAGPQLGGDKIGASKVAEDGELVVLAEEDNKSSEDKDTDESKVSTKDDEQSNEDNATANNQKDENISSENSEENTSDKTLDNNAGSSEKKDPEHSDDEKSQQGQSDDKTTTEDNNGEEESSKKTVSDSENSAKQSESSDEEKEELRKQEEKQMGPTEEEVQHEGAYNPDTGEINWDCPCLGGMAHGPCGEEFKSAFSCFVYSEAEPKGIDCVEKFQHMQDCFRKYPEHYAEQLKETSDDEEPQDKVKVNTIESAPNVSSAKENAAKKAEQSDVKKEPLNEESKP
# partner: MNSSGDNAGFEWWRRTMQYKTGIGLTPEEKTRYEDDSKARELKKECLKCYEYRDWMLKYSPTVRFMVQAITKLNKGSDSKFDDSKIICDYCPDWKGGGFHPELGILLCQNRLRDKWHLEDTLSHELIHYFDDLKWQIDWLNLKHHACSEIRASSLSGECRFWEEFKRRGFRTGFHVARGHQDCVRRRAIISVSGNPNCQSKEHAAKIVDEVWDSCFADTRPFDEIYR
# Variants of: B1
# Details: with atp23_yeast ATP23, P53722
row,Variant,effect of a mutation on the interaction
1,F318E,decreasing interaction
2,F315E,decreasing interaction
